Results reported in publication PMC5149402.

Biological target: rat GluD2 ATD tetramerised with an engineered tetrameric coiled-coil zipper based on GCN4 (rat | not stated)

Q: How did the stoichiometry N turn out when “rat GluD2 ATD tetramerised with an engineered tetrameric coiled-coil zipper based on GCN4 (domain or fragment)” was run?
A: 4
